This test concerns the target SARS-CoV-2 S1蛋白 (ACRO Biosystems) (SARS-CoV-2) (UniProt P0DTC2). Kind of test: BLI, biotinylated SARS-CoV-2 S1 on SA sensor, antibody as analyte, 1:1 model.

Regarding 人源抗体CR3022 (antibody), the Kd (usually the concentration at which binding is half-saturated) amounted to 0.0866 nM; the koff (as a rule, the first-order rate constant of dissociation) worked out at 1.9e-05 s⁻¹; the kon (as a rule, a measure of how fast the partners come together) is 220000 M⁻¹ s⁻¹.

The values are drawn from patent CN114106160A.
